This note sets out measurements from patent US20190338002A1 (Pieris, published 2019).

In assay [1] the target is T1, rat beta CGRP (SEQ ID NO: 83) (rat, not fully specified).
T1 construct: also called rat βCGRP; rat β-CGRP
T1 peptide: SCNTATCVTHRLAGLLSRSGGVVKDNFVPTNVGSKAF
The experiment in a line: competition ELISA in solution; free mutein detected on plate-bound biotinylated CGRP. Here is the method: (§1) Binding of lipocalin muteins to alpha and beta CGRP from human and rat in solution was tested in vitro using a competition ELISA assay format (FIG. 1). In this experiment, a constant concentration of non-biotinylated CGRP (0.5 μM) was incubated for 1 h with variable concentrations of lipocalin muteins SEQ ID NO: 2, SEQ ID NO: 3, SEQ ID NO: 4; SEQ ID NO: 5, and SEQ ID NO: 6. After this pre-incubation in solution, an aliquot of the lipocalin mutein/CGRP mixture was transferred to an ELISA plate coated with Neutravidin-captured human alpha CGRP-bio to measure the concentration of lipocalin muteins that was not blocked by non-biotinylated human alpha CGRP (SEQ ID NO: 80) and therefore could still be bound by the immobilized human alpha CGRP-bio (FIG. 1). This procedure was performed on another relevant CGRP species (human beta CGRP (SEQ ID NO: 81), rat alpha CGRP (SEQ ID NO: 82), rat beta CGRP (SEQ ID NO: 83)). All incubation steps were performed with shaking at 300 rpm, and the plate was washed after each incubation step with 80 μL PBS-T buffer (PBS, 0.05% Tween 20) for five times using a Biotek ELx405 select CW washer. In the first step, a 384-well ELISA plate was coated with 20 μL of Neutravidin at a concentration of 5 μg/mL in PBS over night at 4° C. After washing, the plate was blocked with 60 μL PBS-T/BSA (2% BSA in PBS containing 0.05% Tween 20) for 1 h at room temperature.
(§2) To allow for detection and quantification of plate-bound lipocalin muteins, the residual supernatants were discarded and 20 μL HRP-labeled anti-hNGAL antibody was added at a predetermined optimal concentration in PBS-T/BSA and incubated for 1 h at RT. The anti-hNGAL antibody had been obtained by immunization of rabbits with a mixture of muteins, and was subsequently coupled to HRP using a kit (EZ-link Plus Activated Peroxidase, Thermo Scientific) according to the manufacturer's instructions, to obtain the antibody-HRP conjugate. After washing, 20 μl fluorogenic HRP substrate (QuantaBlu, Thermo) was added to each well, and the reaction was allowed to proceed for 15 to 60 minutes. The fluorescence intensity of every well on the plate was read using a fluorescence microplate reader (Tecan or Molecular Devices). To evaluate the data, free mutein concentration, c(mutein)free, was calculated based on the standard curve results, and plotted versus ligand concentration, c(Ligand).
Background: ELISA stands for enzyme-linked immunosorbent assay.

Assay [2] deals with T2, human alpha CGRP (SEQ ID NO: 80) (human, not fully specified).
T2 construct: also called human αCGRP; hαCGRP
T2 peptide: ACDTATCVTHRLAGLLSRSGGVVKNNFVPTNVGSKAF
The assay is described as above. The protocol:
as §1, §2

In assay [3] the target is T3, rat alpha CGRP (SEQ ID NO: 82) (rat).
T3 construct: also called rat αCGRP; rat α-CGRP
T3 peptide: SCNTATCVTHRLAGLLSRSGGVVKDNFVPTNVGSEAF
The assay is described as above. The protocol: as §1, §2

In assay [4] the target is T1, rat beta CGRP (SEQ ID NO: 83). Description: SPR, 37 C, mutein captured, CGRP analyte. In a few lines:
(§3)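 Biotinylated lipocalin muteins were captured on streptavidin-oligo CAP chip, and CGRP was injected at 30, 3 and 0.3 nM or at a single 25 nM at 37 °C (180 s association, 5400 s dissociation) in HBS-EP+. Double-referenced sensorgrams were globally fit to a 1:1 model for ka and kd.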

Assay [5] deals with T2, human alpha CGRP (SEQ ID NO: 80). The experiment in a line: SPR, 37 C, mutein captured, CGRP analyte. In a few lines:
as §3
(In general: Surface plasmon resonance follows binding to a sensor surface in real time, without labels.)

Assay [6] concerns the target T3, rat alpha CGRP (SEQ ID NO: 82). The experiment in a line: SPR, 37 C, mutein captured, CGRP analyte. In a few lines:
as §3

Assay [7] deals with T4, human beta CGRP (SEQ ID NO: 81) (human, not fully specified).
T4 construct: also called human βCGRP; hβCGRP
T4 peptide: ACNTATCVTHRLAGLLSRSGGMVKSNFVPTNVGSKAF
The experiment in a line: SPR, 37 C, mutein captured, CGRP analyte. Summed up:
as §3

In assay [8] the target is T4, human beta CGRP (SEQ ID NO: 81). The experiment in a line: competition ELISA in solution; free mutein detected on plate-bound biotinylated CGRP. Here is the method:
as §1, §2

For assay [9] the target is unchanged. Description: SPR Biacore 37 °C, mutein captured as ligand, hb CGRP (1-37) injected, 1:1 fit; repeat run 130208_NAN-DS-047 (not the run of Table 2) [contd]. The protocol: (§4) The Biotin CAPture Kit (GE Healthcare) was used to immobilize biotinylated lipocalin muteins to a chip surface. Muteins were biotinylated using standard NHS chemistry. Undiluted Biotin CAPture Reagent (streptavidin conjugated with ss-DNA oligo) was captured on a Sensor Chip CAP with the pre-immobilized complementary ss-DNA oligo. Thereafter, biotinylated muteins at 1 μg/mL were applied for 300 s at a flow rate of 5 μL/min.
(§5) CGRP species were applied in three concentrations of 30 nM, 3 nM and 0.3 nM at a flow rate of 30 μL/min or in a single concentration of 25 nM per cycle as shown in FIG. 2. The dilutions were injected with association times of 180 s and dissociation times of 5400 sec to obtain ka and kd information. Regeneration of the chip surface was achieved by injecting 6 M Guanidinium-HCl+0.25 M NaOH (120 s) with a flow rate of 10 μL/min. Injection of regeneration solutions was followed by an extra wash step with HBS-EP+(1×; BR-1006-69; GE Healthcare) running buffer and a stabilization period of 120 s.
(§6) The data were double-referenced by subtraction of the corresponding signals measured for the control channel (loaded with Biotin CAPture reagent only) and by subtraction of buffer injections from the binding responses. Association rate constant ka and dissociation rate constant kd for the binding reaction were determined using Biacore T200 Evaluation Software V2.0 for data processing and kinetic fitting. The data were globally fit with 1:1 binding model.

Assay [10] addresses T3, rat alpha CGRP (SEQ ID NO: 82). The experiment in a line: SPR Biacore 37 °C, mutein captured as ligand, ra CGRP (1-37) injected, 1:1 fit; repeat run 130208_NAN-DS-047 (not the run of Table 2) [contd]. The protocol:
as §4, §5, §6

The target in assay [11] is T1, rat beta CGRP (SEQ ID NO: 83). Description: SPR Biacore 37 °C, mutein captured as ligand, rb CGRP (1-37) injected, 1:1 fit; repeat run 130208_NAN-DS-047 (not the run of Table 2) [contd]. The protocol: as §4, §5, §6
Assay [12] concerns the target T2, human alpha CGRP (SEQ ID NO: 80). The experiment in a line: SPR Biacore 37 °C, mutein captured as ligand, ha CGRP (1-37) injected, 1:1 fit; repeat run 130208_NAN-DS-047 (not the run of Table 2) [contd]. The protocol: as §4, §5, §6

B1: lipocalin mutein SEQ ID NO: 6 (designed binder)
chain: QDSTSDLIPAPPLSKVPLQQNFQDNQFHGKWYVVGIAGNWWLREDKDPLKMYATIYELKEDKSYNVTHVMFMTKKCDYTIRTFVPGSQPGEFTLGNIKSIPGMTSLLVRVVSTNYNQHAMVFFKFVWQNREWFHITLYGRTKELTSELKENFIRFSKSLGLPENHIVFPVPIDQCIDGSAWSHPQFEK
What is called IC50 is the concentration needed to halve the response being measured. A high value points to lower potency. For the molecule B1, the figures for the IC50 in assay [1], in assay [2] and in assay [3] were 1.6 nM, 3.1 nM and 0.77 nM, respectively.

B2: lipocalin mutein SEQ ID NO: 4 (designed binder)
chain: QDSTSDLIPAPPLSKVPLQQNFQDNQFHGKWYVVGWAGNTLLREDKDPTKMQATIYELKEDKSYNVTWVYFSEKKCNYHIETFVPGSQPGEFTLGTIKSYPGETSILVRVVSTNYNQHAMVFFKGVSQNREIFEITLYGRTKELTSELKENFIRFSKSLGLPENHIVFPVPIDQCIDGSAWSHPQFEK
notes: biotinylated by NHS chemistry for capture in SPR
Usually Kd stands for the constant that tells how readily two partners part at equilibrium. By koff is commonly meant the rate constant with which the complex falls apart. A lower koff goes with a long-lived complex. As usually defined, the kon is a measure of how fast the partners come together. The low end stands for slower complex formation, the high end for faster complex formation. As for B2, the dissociation constant (Kd) in [4] was determined as 2.19 nM; in [5], 1.82 nM; in [6], 5 nM; in [7], 0.753 nM. Further, the koff in assay [4] is 0.00365 s⁻¹; in assay [5], 0.00302 s⁻¹; in assay [6], 0.00621 s⁻¹; in assay [7] it was 0.00395 s⁻¹. Also, the kon in [4] turned out to be 1.66e+06 M⁻¹ s⁻¹; in assay [5], 1.66e+06 M⁻¹ s⁻¹; in assay [6] it was 1.24e+06 M⁻¹ s⁻¹; in assay [7], 5.24e+06 M⁻¹ s⁻¹. For the same molecule, the IC50 in assay [1] turned out to be 3 nM; in assay [2], 2.1 nM; in assay [3] it was 2.6 nM; in assay [8], 1.8 nM.

B3: lipocalin mutein SEQ ID NO: 2 (designed binder)
chain: QDSTSDLIPAPPLSKVPLQQNFQDNQFHGKWYVVGEAGNWGLREDKDPKKMAATIYELKEDKSYNVTDVQFIEKKCDYWIGTFVPGSQPGEFTLGAIKSEPGQTSNLVRVVSTNYNQHAMVFFKEVWQNRELFWITLYGRTKELTSELKENFIRFSKSLGLPENHIVFPVPIDQCIDGSAWSHPQFEK
Regarding B3, the IC50 in assay [1] was determined as 47 nM; in assay [2] it was 55 nM; in assay [3], 35 nM; in assay [8] it was 46 nM.

B4: lipocalin mutein SEQ ID NO: 5 (designed binder)
chain: QDSTSDLIPAPPLSKVPLQQNFQDNQFHGKWYVVGRAGNAELREDKDPEKMEATIYELKEDKSYNVTDVGFWQKKCIYVIHTFVPGSQPGEFTLGNIKSYPGTTSALVRVVSTNYNQHAMVFFKVVRQNREWFEITLYGRTKELTSELKENFIRFSKSLGLPENHIVFPVPIDQCIDGSAWSHPQFEK
Turning to B4, the IC50 in [1] is 27 nM; in assay [2], 36 nM; in assay [3], 21 nM; in [8], 28 nM.

B5: lipocalin mutein SEQ ID NO: 15 (designed binder)
chain: QDSTSDLIPAPPLSKVPLQQNFQDNQFHGKWYVVGRAANDRLREDKDPEKMEATIYELKEDKSYNVTDVGFSRKKCIYVIHTFVPGSQPGEFTLGNIKSYPGTTSGLVRVVSTNYNQHAMVFFKVVGQNRESFEITLYGRTKELTSELKENFIRFSKSLGLPENHIVFPVPIDQCIDGSAWSHPQFEK
notes: as for B2
Turning to B5, the Kd came out at 0.039 nM in [4], 0.038 nM in [5], 0.17 nM in assay [6] and 0.018 nM in assay [7]. Besides, the koff in assay [4] stood at 0.000193 s⁻¹; in assay [5], 0.000238 s⁻¹; in [6], 0.000274 s⁻¹; in assay [7] it was 0.000273 s⁻¹; in assay [9], 0.000309 s⁻¹; in assay [10] it was 0.000295 s⁻¹. For the same molecule, the off-rate (koff) came to 0.000178 s⁻¹ in assay [11] and 0.000256 s⁻¹ in assay [12]. In addition, the association rate constant (kon) in [4] was found to be 4.98e+06 M⁻¹ s⁻¹; in assay [5], 6.32e+06 M⁻¹ s⁻¹; in assay [6] it was 1.59e+06 M⁻¹ s⁻¹; in assay [7], 1.53e+07 M⁻¹ s⁻¹; in assay [9], 1.22e+07 M⁻¹ s⁻¹; in [10], 1.38e+06 M⁻¹ s⁻¹. Besides, the kon came out at 2.31e+06 M⁻¹ s⁻¹ in [11] and 5.23e+06 M⁻¹ s⁻¹ in [12].

B6: lipocalin mutein SEQ ID NO: 3 (designed binder)
chain: QDSTSDLIPAPPLSKVPLQQNFQDNQFHGKWYVVGFAGNMWLREDKDPFKMGATIYELKEDKSYNVTWVWFEAKKCDYGINTFVPGSQPGEFTLGGIKSPPGMTSHLVRVVSTNYNQHAMVFFKEVFQNREWFWITLYGRTKELTSELKENFIRFSKSLGLPENHIVFPVPIDQCIDGSAWSHPQFEK
B6: the IC50 in assay [1] was 12 nM; in assay [2], 7.5 nM; in assay [8] it was 14 nM.
